How the values were obtained:
[1] = target: DS-Cav1-foldon-I53-50 nanostructure, 100% valency (respiratory syncytial virus (RSV)); test: SPR, D25 immobilised, antigen at 50 nM heat-stressed at 70 °C for 1 h (FIG. 10)
[2] = target: DS-Cav1-foldon-I53-50A trimer (respiratory syncytial virus (RSV)); test: as above

## D25 monoclonal antibody
[1]
  percent of binding signal retained after 70 °C for 1 hour: 80%
[2]
  percent of binding signal retained after 70 °C for 1 hour: 50%
